Reference: patent US20220145281A1, “NEW VACCINAL STRATEGY TO PREVENT OR TREAT RHUMATOID ARTHRITIS” (INSERM (Institut National de la Santé et de la Recherche …, priority 2019, published 2022)

Columns and labels:
[1] = molecular target: T1, HLA-DRB1*01:01 (Homo sapiens, UniProt P01903+P01911, A100R/D57E/F55L/F60I/F76Y/I96L/L162R/M171V/P40L/Q125E/R42F/V115G/Y59C); test: HLA-DR peptide-binding assay (ELISA); conditions: positive binding = OD equal to the OD for the HA peptide
T1 construct: Purification of HLA-DRB1 molecules from lymphoblastoid cell lines; Total protein extracts were immunoprecipitated by anti-HLA-DR LB3.1 antibody; endogenous in cells; host or cells: JESTHOM lymphoblastoid cell line, HLA homozygous

[2] = molecular target: T2, HLA-DRB1*04:01 (Homo sapiens, UniProt P01903+P01911, A100K/A169T/F76Y/I96L/K127E/L162R/M171V/N62H/P40V/Q125Y/R42H/S133A/S149N/S66Y/V115G/V209L/W38E); test: HLA-DR peptide-binding assay (ELISA); conditions: positive binding = OD equal to the OD for the HA peptide
T2 construct: Purification of HLA-DRB1 molecules from lymphoblastoid cell lines; Total protein extracts were immunoprecipitated by anti-HLA-DR LB3.1 antibody; endogenous in cells; host or cells: SAVC lymphoblastoid cell line, HLA homozygous

[3] = molecular target: HLA-DRB1*04:02 (Homo sapiens, UniProt P01903+P01911, A100E/A169T/F76Y/K127E/L162R/M171V/N62H/P40V/Q125Y/Q99D/R42H/S133A/S149N/S66Y/V209L/W38E); test: HLA-DR peptide-binding assay (ELISA); conditions: positive binding = OD equal to the OD for the HA peptide
[4] = molecular target: HLA-DRB1*04:04 (Homo sapiens, UniProt P01903+P01911, A100R/A169T/F76Y/I96L/K127E/L162R/M171V/N62H/P40V/Q125Y/R42H/S133A/S149N/S66Y/V209L/W38E); test: HLA-DR peptide-binding assay (ELISA); conditions: positive binding = OD equal to the OD for the HA peptide
[5] = molecular target: HLA-DRB1*07:01 (Homo sapiens, UniProt P01903+P01911, A100R/A102G/A103Q/D57E/D86V/E43K/F76Y/K127E/L162R/M171V/P40G/Q125H/Q99D/R33Q/R42Y/R54Q/S133A/S66F/T210M/V115G/Y107V/Y59L/Y89S); test: HLA-DR peptide-binding assay (ELISA); conditions: positive binding = OD equal to the OD for the HA peptide
[6] = test system: 5 purified HLA-DR molecules; test: HLA-DR peptide-binding assay, panel of alleles and likelihood calculation per genotype; parameters: species or system human
[7] = test system: Mononuclear cells (PBLs) from patients and controls; test: T cell proliferation assay (BRDU incorporation); assay type: cell-based, human; conditions: healthy controls, 11, 5 μg/ml peptide, 6 days
Method: T cell proliferation assay. Mononuclear cells from patients were isolated from 20 ml of heparinized blood by centrifugation through Ficoll-Histopaque (Sigma Aldrich, St. Quentin-Fallavier, France). Cells were cultured at a density of 10^6 cells/ml in RPMI 1640 with 10% self-serum in the presence of 1 μg/ml of human PAD4 or human fibrinogen or PHA (phytohemagglutinin) or 5 μg/ml of PAD4 peptide. After 6 days of culture at 37° C., proliferative response to proteins was evaluated using the colorimetric bromodeoxyuridine kit (Roche Diagnostics, Meylan, France). Positive T cell responses were defined by optical densities (OD) higher than twice the ODs for cells cultured without protein or peptide.

[8] = test system: CD4 T cells; test: Flow cytometry analysis of whole blood samples stimulated with PAD4; assay type: cell-based, human; conditions: 10 RA patients and 7 controls
Description: One patient with RA (2.4%) and none of the patients with psoriatic arthritis or healthy controls had proliferative response to citrullinated fibrinogen. To confirm that the proliferative response observed in PBLs cultured with PAD4 was due to T cells, we ran flow cytometry analysis in an extra 10 RA patients and 7 controls.

[9] = molecular target: T3, HLA-DR molecule HLA-DRB1*04:01, purified from lymphoblastoid cell line SAVC (human); test: ELISA: peptide coated on plate, purified HLA-DR added
T3 construct: Immunoprecipitated from detergent cell lysate with anti-HLA-DR LB3.1 and eluted at pH 2
Method: (§1) HLA-DR Peptide-binding assay. ELISA plates were coated with 10 μg of PAD4 or fibrinogen peptide/well and blocked in 1% bovine serum albumin (BSA). One microgram of purified HLA-DR molecule was added to plates. After washing, bound HLA-DR was detected by biotinylated anti HLA-DR antibody B8122 (Immunotech, Marseille, France), followed by peroxidase-conjugated avidin. Peroxidase-conjugated anti-mouse IgG and peroxidase-conjugated avidin were supplied by Sigma Aldrich (St. Quentin-Fallavier, France). Optical density was read at 405 nm. The binding of each of the purified HLA-DR alleles was assayed on ELISA plates coated with peptides from PAD4 or Fibrinogen (each in duplicate wells) and, as controls, 2 wells coated with a classical positive binder, influenza hemagglutinin (HA) peptide ([…]). Positive binding was defined as an OD value equal to the OD for the HA peptide.

[10] = molecular target: T4, HLA-DR molecule HLA-DRB1*01:01, purified from lymphoblastoid cell line JESTHOM (human); test: as above
T4 construct: Immunoprecipitated from detergent cell lysate with anti-HLA-DR LB3.1 and eluted at pH 2
Method: as §1

[11] = molecular target: T5, HLA-DR molecule HLA-DRB1*04:02, purified from lymphoblastoid cell line YAR (human); test: as above
T5 construct: Immunoprecipitated from detergent cell lysate with anti-HLA-DR LB3.1 and eluted at pH 2
Method: as §1

[12] = molecular target: T6, HLA-DR molecule HLA-DRB1*04:04, purified from lymphoblastoid cell line PEYSSON (human); test: as above
T6 construct: Immunoprecipitated from detergent cell lysate with anti-HLA-DR LB3.1 and eluted at pH 2
Method: as §1

[13] = molecular target: T7, HLA-DR molecule HLA-DRB1*07:01, purified from lymphoblastoid cell line MOU (human); test: as above
T7 construct: Immunoprecipitated from detergent cell lysate with anti-HLA-DR LB3.1 and eluted at pH 2
Method: as §1

For “DPGVEVTLTMKAASGSTGDQ (Synthetic peptide p8) [peptide 8, 20-mer peptide from human PAD4]”, the “binding to HLA-DRB1*01:01” value [1] was “binds”, the “binding to HLA-DRB1*04:01” value [2] was “binds” and the “binding to HLA-DRB1*04:02” value [3] was “binds”. For the same molecule, the “binding to HLA-DRB1*04:04” value [4] was “binds”, the “binding to HLA-DRB1*07:01” value [5] was “binds” and the “binding to the five tested HLA-DRB1 alleles” value ([6]; HLA-DRB1*01:01, *04:01, *04:02, *04:04, *07:01) was “bound all five tested HLA-DRB1 alleles”. The “subjects with T cell proliferative response to peptide (OD ratio higher than 2)” value (“subjects … (OD ratio higher than 2)” for short) [7] was 0/11 and no healthy control and the “subjects … (OD ratio higher than 2)” value ([7]; listed as Peptide 8) was 0.

For “VRVFQATRGKLSSKCSVVLG (Synthetic Peptide 22) [20-mer peptide from human PAD4]”, the “binding to HLA-DRB1*04:01” value [2] was “bind HLA-DRB1*04:01 only” and the “subjects … (OD ratio higher than 2)” value [7] was “none of 11”.

B1: peptidyl arginine deiminase 4 (protein, listed as Homo sapiens)
chain: MAQGTLIRVTPEQPTHAVCVLGTLTQLDICSSAPEDCTSFSINASPGVVVDIAHSPPAKKKSTGSSTWPLDPGVEVTLTMKAASGSTGDQKVQISYYGPKTPPVKALLYLTAVEISLCADITRTGKVKPTRAVKDQRTWTWGPCGQGAILLVNCDRDNLESSAMDCEDDEVLDSEDLQDMSLMTLSTKTPKDFFTNHTLVLHVARSEMDKVRVFQATRGKLSSKCSVVLGPKWPSHYLMVPGGKHNMDFYVEALAFPDTDFPGLITLTISLLDTSNLELPEAVVFQDSVVFRVAPWIMTPNTQPPQEVYACSIFENEDFLKSVTTLAMKAKCKLTICPEEENMDDQWMQDEMEIGYIQAPHKTLPVVFDSPRNRGLKEFPIKRVMGPDFGYVTRGPQTGGISGLDSFGNLEVSPPVTVRGKEYPLGRILFGDSCYPSNDSRQMHQALQDFLSAQQVQAPVKLYSDWLSVGHVDEFLSFVPAPDRKGFRLLLASPRSCYKLFQEQQNEGHGEALLFEGIKKKKQQKIKNILSNKTLREHNSFVERCIDWNRELLKRELGLAESDIIDIPQLFKLKEFSKAEAFFPNMVNMLVLGKHLGIPKPFGPVINGRCCLEEKVCSLLEPLGLQCTFINDFFTYHIRHGEVHCGTNVRRKPFSFKWWNMVP
notes: Human PAD4 protein produced in baculovirus expression system
For B1, the “Likelihood to bind at least one peptide from” value (“Likelihood to bind” below) ([6]; genotype DRB1*01:01/01:01) was 0.061, the “Likelihood to bind” value ([6]; genotype DRB1*01:01/04:01) was 0.165 and the “Likelihood to bind” value ([6]; genotype DRB1*01:01/04:04) was 0.120. For the same molecule, the “Likelihood to bind” value ([6]; genotype DRB1*01:01/07) was 0.076, the “Likelihood to bind” value ([6]; genotype DRB1*04:01/04:01) was 0.258 and the “Likelihood to bind” value ([6]; genotype DRB1*04:01/04:04) was 0.218. For the same molecule, the “Likelihood to bind” value ([6]; genotype DRB1*04:01/07) was 0.178, the “Likelihood to bind” value ([6]; genotype DRB1*04:02/07) was 0.090 and the “Likelihood to bind” value ([6]; genotype DRB1*04:04/04:02) was 0.134. For the same molecule, the “Likelihood to bind” value ([6]; genotype DRB1*04:04/04:04) was 0.176, the “Likelihood to bind” value ([6]; genotype DRB1*04:04/07) was 0.134 and the “Likelihood to bind” value ([6]; genotype DRB1*07/07) was 0.090. For the same molecule, the “expression of CD154 (T cell early activation marker) on CD4 T cells” value [8] was “increased expression of CD154” and the “production of TNF alpha by CD4 T cells” value [8] was “increased production of TNF alpha”.

B2: peptide 22 from PAD4 (VRVFQATRGKLSSKCSVVLG) (peptide)
peptide: VRVFQATRGKLSSKCSVVLG
notes: Synthetic 20-mer, coated on the ELISA plate (10 ug/well); also called p22; peptide p22
B2: binds [9].

B3: peptide 8 from PAD4 (DPGVEVTLTMKAASGSTGDQ) (peptide)
peptide: DPGVEVTLTMKAASGSTGDQ
notes: Synthetic 20-mer, coated on the ELISA plate (10 ug/well); also called p8; peptide p8
B3: binds [10]; binds [9]; binds [11]. B3: binds [12]; binds [13].
